# PMC7374468, “Characterization of highly active 2-keto-3-deoxy-L-arabinonate and 2-keto-3-deoxy-D-xylonate dehydratases in terms of the biotransformation of hemicellulose sugars to chemicals” (Applied Microbiology and Biotechnology, 2020)
# T1: PpD-KdpD (Pseudomonas putida, UniProt Q88J13)
# T1 construct: gene PP_2836; C-terminal His6 tag (kept), pET vector, E. coli BL21(DE3), HisTrap purified
# T1 sequence (Q88J13 1-405): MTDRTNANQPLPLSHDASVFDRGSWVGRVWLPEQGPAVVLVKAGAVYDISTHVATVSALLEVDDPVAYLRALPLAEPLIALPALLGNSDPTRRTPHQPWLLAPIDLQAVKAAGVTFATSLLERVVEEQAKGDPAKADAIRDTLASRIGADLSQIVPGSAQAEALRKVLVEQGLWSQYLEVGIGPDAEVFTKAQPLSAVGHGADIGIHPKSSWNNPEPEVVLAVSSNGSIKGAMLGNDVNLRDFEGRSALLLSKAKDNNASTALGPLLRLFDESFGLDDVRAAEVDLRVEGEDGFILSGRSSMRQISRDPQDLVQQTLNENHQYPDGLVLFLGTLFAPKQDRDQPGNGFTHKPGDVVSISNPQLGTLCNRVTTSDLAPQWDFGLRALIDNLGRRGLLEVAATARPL
# B1: VpL-KdpD (Variovorax paradoxus EPS) (protein)
# chain: MPKPMNHNLSNPRYRGIFPVVPTTFTEQGALDLESQKRCVDFMIDAGSDGLCILANFSEQFVLSDEEREVLTRTMLEHVKGRVPVIVTTTHYSTKVCAERSRRAQDMGAAMLMVMPPYHGATFRVPEPQIFEFYAGLSDAVSIPIMIQDAPASGTVLSAPFLARMAKEIEHVAYFKIETANAAAKLRELIRLGGDAIEGPWDGEEAITLMPDLDAGATGSMTGGGYPDGIRPIIEAHRAGDRDKAFALYQQWLPLINYENRQAGLLACKSLMKEGGVIACEAPRHPLPAMHPATRAGLIETAKRLDPLVLRWGK
# notes: N-terminal His6 tag (kept), pET vector, E. coli BL21(DE3), HisTrap purified
# Assays:
# PpD-KdpD = target: T1, PpD-KdpD; test: coupled assay with PpKGSADH, NADH at […] nm; type: biochemical; conditions: read-out: I50
# purified protein = substrate: O=C(O)C(=O)C[C@@H](O)CO; test: purified protein; type: biochemical, Variovorax paradoxus; conditions: 2 mM NAD+ for coupling enzyme, 5 mM MgCl2, 50 mM HEPES pH 7.5, 25 °C
Molecule,IC50 (PpD-KdpD) [mM],Km (purified protein) [µM],kcat (purified protein) [s⁻¹],kcat/Km (purified protein) [M⁻¹ s⁻¹]
O=C(O)[C@H](O)[C@@H](O)[C@H](O)CO [D-xylonate],75,–,–,–
B1,–,150 ± 10,21.8 ± 0.2,146000 ± 200
